Test results published in patent US20080242590A1, “New Method 706” (ASTRAZENECA AB, priority 2007, published 2008).

Key:
[1] = Pharmacokinetics of Fc-Nep and commercial neprilysin, single i.v. dose (Example 20); assay type: in vivo; settings: mice, single i.v. dose 1 alternatively 5 mg/kg
Description: The Fc-Nep fusion protein was developed to improve the pharmacokinetic entities of neprilysin with the specific aims to reduce clearance and improve half-life. To test this we have administrated a single i.v. dose of either 1 mg/kg commercial neprilysin or 1 alternatively 5 mg/kg in-house produced Fc-Nep to mice. At set times after dosing blood samples were drawn from the tail vein or by heart puncture at termination. Upon sampling into tubes containing EDTA the aliquots were put on ice. Plasma was prepared by centrifugation within 15 minutes of sampling (typically 1500 g at 4° C. for 10 min) and immediately frozen. Plasma concentrations of Fc-Nep and neprilysin were determined via immunoassays using either anti-Nep for commercial neprilysin or anti-human IgG for Fc-Nep as capture antibodies while both substances were detected via an anti-Nep antibody. Pharmacokinetic parameters are calculated using a software package (WinNonlin, Pharsight Corporation, USA) and in this example experiment the calculated half-life had increased from about 5 minutes for Nep to about 20 hours for Fc-Nep.

[2] = tested on: fluorogenic peptide substrate V—Mca-Arg-Pro-Gly-Phe-Ser-Ala-Phe-Lys(Dnp)-OH; experiment: Neprilysin enzyme activity FRET assay, cell media; assay type: biochemical
Description: The Neprilysin enzymatic activity was determined in a fluorescence resonance energy transfer (FRET) assay. Recombinant Human Neprilysin (R&D Systems), culture medium from Neprilysin or Fc-Neprilysin producing cells (AZ Sodertalje) or purified Neprilysin or Fc-Neprilysin was added into 96-well plate containing 10 μM of fluorogenic peptide substrate V—Mca-Arg-Pro-Gly-Phe-Ser-Ala-Phe-Lys(Dnp)-OH (R&D Systems). The final concentration of the control recombinant human Neprilysin was 0.1 or 0.25 μg/ml. 10 μM of Neprilysin inhibitor phosphoramidone (BIOMOL) was added into some wells in order to control the specificity of the signal in the assay and verify the specific Neprilysin activity. Following addition of all components to wells, plate was immediately placed into a fluorescent plate reader (Ascent) and signal was recorded for every minute for 20 minutes at the excitation 340 nm and emission 405 nm. The activity of enzyme was evaluated by calculating the velocity of reaction−Slope coefficient=ΣΔRFU/Δt. In order to compare the specific activity of the commercial recombinant Neprilysin and Fc-Neprilysin fusion protein, we introduced the specific activity coefficient, which is calculated according to this formula: Specific activity=slope coefficient/pmol of Neprilysin or monomer of Fc-Neprilysin in assay. […]

[3] = Observations of animal health (Example 24); assay type: in vivo, C57BL/6 mice; settings: 1 or 5 mg/kg single i.v., whole experiment
Aβ40 = experiment: Plasma Aβ40 time-response after single i.v. dose (Example 25); assay type: in vivo, C57BL/6 mice; settings: 5 mg/kg single i.v., all time points (1.5, 6, 12, 24, 36, 72 and 168 hours)
Description: The objective of this study was to evaluate the time-response relationship of the hFc-Nep in plasma of female C57BL/6 mice after a single dose. The specific purpose is to find how long the reducing effect of hFc-Nep stays in the plasma, and to correlate the effect to the level of exposure of test compound in plasma. The γ-secretase inhibitor M-550426 is included as a positive compound.
20-21 weeks old female C57BL/6 mice (8 mice/group) received vehicle or hFc-Nep at 5 mg/kg as a single intravenous injection and Aβ40 was analysed at different time points after injection (between 1.5-168 hours, i.e., up to 1 week). The γ-secretase inhibitor M-550426 was given per orally and the animals were treated for 3 hours. A blank group was also included in the study. […] Blood collection, plasma processing and measurement of mouse Aβ40 levels in plasma were basically as described in Example 27.

amyloid β 1-40 = experiment: Degradation of Aβ 1-40 in APPswe-tg mouse plasma pool (Example 28); assay type: biochemical; settings: room temperature, 1 hour
Description: Mouse plasma collected from 9 animals was stored at −70° C. Plasma was thawed and pooled just before the experiment. Aβ 1-40 and 1-42 in plasma pool was degraded by human Fc-Nep or mouse Fc-Nep with corresponding vehicles (50 mM Tris-HCl, 150 mM NaCl pH 7.5). […] The enzymatic reaction was stopped by adding Phosphoramidone (10 μM final concentration).
After degradation, before concentration of amyloid β 1-40 in tg-mouse plasma pool was measured using ELISA kit (Biosource; KHB3481), the plasma samples were diluted 20 times in standard diluent buffer, according to manufacturers instructions.

B1: Fc-Neprilysin: extracellular domain of human Neprilysin fused to the human IgG2 Fc domain (including hinge), Fc at N-terminus; SEQ ID NO 11 (protein)
chain: ERKCCVECPPCPAPPVAGPSVFLFPPKPKDTLMISRTPEVTCVVVDVSHEDPEVQFNWYVDGVEVHNAKTKPREEQFNSTFRVVSVLTVVHQDWLNGKEYKCKVSNKGLPAPIEKTISKTKGQPREPQVYTLPPSREEMTKNQVSLTCLVKGFYPSDIAVEWESNGQPENNYKTTPPMLDSDGSFFLYSKLTVDKSRWQQGNVFSCSVMHEALHNHYTQKSLSLSPGKYDDGICKSSDCIKSAARLIQNMDATTEPCTDFFKYACGGWLKRNVIPETSSRYGNFDILRDELEVVLKDVLQEPKTEDIVAVQKAKALYRSCINESAIDSRGGEPLLKLLPDIYGWPVATENWEQKYGASWTAEKAIAQLNSKYGKKVLINLFVGTDDKNSVNHVIHIDQPRLGLPSRDYYECTGIYKEACTAYVDFMISVARLIRQEERLPIDENQLALEMNKVMELEKEIANATAKPEDRNDPMLLYNKMTLAQIQNNFSLEINGKPFSWLNFTNEIMSTVNISITNEEDVVVYAPEYLTKLKPILTKYSARDLQNLMSWRFIMDLVSSLSRTYKESRNAFRKALYGTTSETATWRRCANYVNGNMENAVGRLYVEAAFAGESKHVVEDLIAQIREVFIQTLDDLTWMDAETKKRAEEKALAIKERIGYPDDIVSNDNKLNNEYLELNYKEDEYFENIIQNLKFSQSKQLKKLREKVDKDEWISGAAVVNAFYSSGRNQIVFPAGILQPPFFSAQQSNSLNYGGIGMVIGHEITHGFDDNGRNFNKDGDLVDWWTQQSASNFKEQSQCMVYQYGNFSWDLAGGQHLNGINTLGENIADNGGLGQAYRAYQNYIKKNGEEKLLPGLDLNHKQLFFLNFAQVWCGTYRPEYAVNSIKTDVHSPGNFRIIGTLQNSAEFSEAFHCRKNSYMNPEKKCRVW
calculated half-life [1]: about 20 hours | Specific activity (slope coefficient/pmol) ([2]; expression with pCEP4 vector): 13.4 | Specific activity (slope coefficient/pmol) ([2]; expression with pEAK10 vector): 15.2 | Observations of the animal health [3]: no overt adverse effects | Aβ40 reduction in plasma compared to vehicle (Aβ40): 67-80% | Degradation of amyloid β 1-40 compared to plasma without treatment (amyloid β 1-40; highest concentration 100 μg/ml): 71% | EC50 (amyloid β 1-40): 470 nM
